In patent publication US20190151346A1, “COMBINATIONS THERAPIES FOR THE TREATMENT OF CANCER” (INSERM (INSTITUTE NATIONAL DE LA SANTÉ ET DE LA RECHERCHE …, priority 2016, published 2019):

B1: IL-17E: pro-inflammatory cytokine, product of the human IL-17E gene, also named IL-25 (protein, UniProt Q9H293 33-177, looked up)
Interleukin-25: YSHWPSCCPSKGQDTSEELLRWSTVPVPPLEPARPNRHPESCRASEDGPLNSRAISPWRYELDRDLNRLPQDLYHARCLCPHCVSLQTGSHMDPRGNSELLYHNQTVFYRRPCHGEKGTHKGYCLERRLYRVSLACVCVRPRVMG
B2: IL-17B: cytokine, product of the human IL-17B gene; ligand of IL-17RB (protein, UniProt Q9UHF5 21-180, looked up)
Interleukin-17B: QPRSPKSKRKGQGRPGPLAPGPHQVPLDLVSRMKPYARMEEYERNIEEMVAQLRNSSELAQRKCEVNLQLWMSNKRSLSPWGYSINHDPSRIPVDLPEARCLCLGCVNPFTMQEDRSMVSVPVFSQVPVRRRLCPPPPRTGPCRQRAVMETIAVGCTCIF

Assays:
Assay type in all cases: cell-based
Src = test: Tyrosine phosphorylation by Western blotting: Src phosphorylation in TNBC cell lines
Procedure: (§1) BT20 and MDA-MB468 triple negative (HER2-, ER-, PR-) were obtained from American Type Culture Collection (ATCC N°HTB19, and ATCC N°HTB132, respectively). The LumB, and Her2-, ER-, PR-negative IJG-1731 cell line was previously established at the laboratory as described (Mombelli et al. Sci Rep. 2015 Jul. 8; 5:11874.) BT20 and IJG-1731 cells were grown in complete RPMI-1640 media with L-glutamine, supplemented with 10% fetal calf serum (FCS) and penicillin—streptomycin solution (100 μg/ml each) (Life technology, Saint-Aubain, France). MDA-MB468 cells were grown in a complete DMEM-F12 media with glutamine, 10% FCS and penicillin—streptomycin. All cells were maintained in a humidified 5% CO2 atmosphere at 37° C. All experiments were conducted with cells at confluency and starved for an overnight.
(§2) Cells (3×10^5) were seeded in 6-well plates in complete medium for 24 hours then starved for another overnight. Cells were then stimulated with IL-17E (10 ng/ml), EGF (10 ng/ml), or a combination of both for 30 min in serum-free medium. Cells were then lysed in 1% Triton X100 buffer and left on ice for 1 hours. Protein samples were then subjected to 8% SDS-PAGE. Western blotting using specific antibodies assessed then the phosphorylation of the various kinases.

EGFR [1] = test: Cellular fractionation and Western blotting: EGFR and pY1086EGFR translocation to the nucleus; details: MDA-MB468 cytoplasmic and nuclear fractions; FIG. 4A
Procedure: as §1
(§3) Cells (3×10^5) were seeded in 6-well plates in complete medium for 24 hours then starved for another overnight. Cells were stimulated for 2 hours at 37° C. with IL-17E (10 ng/ml), EGF (long/ml), or a combination of both as indicated. Cells were then washed with PBS and lysed in a lysis buffer (HEPES 10 mM, MgCl2 15 mM KCl 10 mM, DTT 0.5 mM, PMSF 0.2 mM, 1 mM Na3VO4, 10 mM NaF, 0.5% Nonidet P-40). […] Protein concentrations were determined by using Bradford method. […]

STAT3 [2] = test: Tyrosine phosphorylation by Western blotting: STAT3 phosphorylation in TNBC cell lines; details: 10 ng/ml
Procedure: as §1, §2

PYK-2 = test: Tyrosine phosphorylation by Western blotting: PYK-2 phosphorylation in TNBC cell lines; details: three cell lines; 10 ng/ml; FIG. 1
Procedure: as §1, §2

EGFR [3] = test: Immunofluorescence microscopy: localization of EGFR; details: MDA-MB468; 10 ng/ml, 2 hours; FIG. 4A, FIG. 7
Procedure: as §1
Cells (4.10^3) were grown on Lab-Tek chambers slide in their respective complete culture medium for 24 hours then starved for an overnight. Cells were then stimulated with IL-17E (long/ml), EGF (10 ng/ml) or a combination of both for 2 hours at 37° C., washed, and fixed with 4% paraformaldehyde (PFA)-PBS solution at 4° C. […] Slides were mounted with mounting medium containing Dapi then visualized with a Leica DMRB fluorescence microscope and images analysis was performed with the Archimed Software (Microvision).

EGFR [4] = test: Tyrosine phosphorylation by Western blotting: EGFR phosphorylation in TNBC cell lines; details: IJG-1731, BT-20 and MDA-MB468; 10 ng/ml; FIG. 1
Procedure: BT20 and MDA-MB468 triple negative (HER2-, ER-, PR-) were obtained from American Type Culture Collection (ATCC N°HTB19, and ATCC N°HTB132, respectively). […] MDA-MB468 cells were grown in a complete DMEM-F12 media with glutamine, 10% FCS and penicillin—streptomycin. All cells were maintained in a humidified 5% CO2 atmosphere at 37° C. All experiments were conducted with cells at confluency and starved for an overnight.
as §2

STAT3 [5] = test: Cellular fractionation and Western blotting: STAT3 and pSTAT3 translocation to the nucleus; details: MDA-MB468 fractions
Procedure: as §1, §3

Molecule | phosphorylation of Src at Y416 at suboptimal concentrations (Src; MDA-MB468, IL-17E 1 ng/ml alone or EGF 0.1-1 ng/ml alone, FIG. 3) | phosphorylation of Src at Y416 (Src; three cell lines, 10 ng/ml, FIG. 1) | translocation of non-phosphorylated EGFR form to the nucleus (EGFR [1]) | translocation of phosphorylated EGFR (pY1086EGFR) to the nucleus (EGFR [1]) | phosphorylation of STAT3-α and -β at Y705 (STAT3 [2]; IJG-1731 and BT20 cell lines, FIGS. 1A and B) | phosphorylation of STAT3-α and -β (STAT3 [2]; MDA-MB468 cell line) | phosphorylation of PYK2 at Y402 (PYK-2) | translocation of EGFR (immunofluorescence) (EGFR [3]) | intensity of induced EGFR phosphorylation (EGFR [4]) | phosphorylation of STAT3α and β (STAT3 [5])
B1 | failed to induce any significant phosphorylation | induced the phosphorylation | fairly translocate | failed to induce its significant translocation to the nucleus | induced considerable phosphorylation | less evident | induced the phosphorylation | induced the translocation of EGFR to the nucleus but to a lower extends compared to EGF | comparable to that induced by EGF | induced the phosphorylation
B2 | – | – | – | – | – | – | – | induced a translocation from the membrane to cytoplasm with a strong perinuclear reorganization | – | –
